Positions count from the first letter of the chain named. Names may count otherwise. “And” between values parts separate entries of the source, which are not always exact repeats. Equal values may be shown once.
B1: V68A/T110A (protein)
chain: VIHVTKEVKEVATLSCGHNVSVEELAQTRIYWQKEKKMVLTMMSGDMNIWPEYKNRTIFDITNNLSIAILALRPSDEGTYECVVLKYEKDAFKREHLAEVTLSVKADFPAPSISDFEIPTSNIRRIICSTSGGFPEPHLSWLENGEELNAINTTVSQDPETELYAVSSKLDFNMTTNHSFMCLIKYGHLRVNQTFNWNTTKQEHFPDN
modifications: CD80 v26 ECD
B2: L65H/D90G/T110A/F116L (protein)
chain: B1 chain with L65H, A68V, D90G, F116L
modifications: CD80 v141 ECD
B3: R29H/E52G/D90N/I118V/T120S/T130A (protein)
chain: B1 chain with R29H, E52G, A68V, D90N, A110T, I118V, T120S, T130A
modifications: CD80 v142 ECD
B4: A91G/L102S (protein)
chain: B1 chain with A68V, A91G, L102S, A110T
B5: I67T/L70Q/A91G/I118V/T120S (protein)
chain: B1 chain with I67T, A68V, L70Q, A91G, A110T, I118V, T120S, N196H
modifications: CD80 v144 ECD
B6: L70Q/A91G/T110A/I118V/T120S/T130A (protein)
chain: B1 chain with A68V, L70Q, A91G, I118V, T120S, T130A
modifications: CD80 v145 ECD
B7: M38V/T41D/M43I/W50G/D76G/V83A/K89E/I118V/T120S/I126V/T130A (protein)
chain: VIHVTKEVKEVATLSCGHNVSVEELAQTRIYWQKEKKVVLDMISGDMNIGPEYKNRTIFDITNNLSIVILALRPSGEGTYECAVLKYEEDAFKREHLAEVTLSVKADFPTPSISDFEVPSSNIRRVICSASGGFPEPHLSWLENGEELNAINTTVSQDPETELYAVSSKLDFNMTTNHSFMCLIKYGHLRVNQTFNWNTTKQEHFPDN
B8: V22A/L70Q/S121P (protein)
chain: B1 chain with V22A, A68V, L70Q, A110T, S121P
modifications: CD80 v33 ECD
B9: A12V/S15F/Y31H/M38L/T41G/M43L/D90N/T130A/P137L/N149D/N152T (protein)
chain: VIHVTKEVKEVVTLFCGHNVSVEELAQTRIHWQKEKKLVLGMLSGDMNIWPEYKNRTIFDITNNLSIVILALRPSDEGTYECVVLKYEKNAFKREHLAEVTLSVKADFPTPSISDFEIPTSNIRRIICSASGGFPELHLSWLENGEELDAITTTVSQDPETELYAVSSKLDFNMTTNHSFMCLIKYGHLRVNQTFNWNTTKQEHFPDN
B10: I67F/L70R/E88G/A91G/I118V/T120S/T130A (protein)
chain: B1 chain with I67F, A68V, L70R, E88G, A91G, A110T, I118V, T120S, T130A
modifications: CD80 v148 ECD
B11: E24G/L25P/L70Q/A91G/I118V/T120S/N152T (protein)
chain: B1 chain with E24G, L25P, A68V, L70Q, A91G, A110T, I118V, T120S, N152T
modifications: CD80 v149 ECD
B12: A91G/F92L/F108L/1118V/T120S (protein)
chain: B1 chain with A68V, A91G, F92L, F108L, A110T, I118V, T120S
B13: R29D/Y31L/Q33H/K36G/M38I/T41A/M43R/M47T/E81V/L85R/K89N/A91T/F92P/K93V/R94L/I118T/N149S (protein)
chain: VIHVTKEVKEVATLSCGHNVSVEELAQTDILWHKEGKIVLAMRSGDTNIWPEYKNRTIFDITNNLSIVILALRPSDEGTYVCVVRKYENDTPVLEHLAEVTLSVKADFPTPSISDFETPTSNIRRIICSTSGGFPEPHLSWLENGEELSAINTTVSQDPETELYAVSSKLDFNMTTNHSFMCLIKYGHLRVNQTFNWNTTKQEHFPDN
B14: R29D/Y31L/Q33H/K36G/M38I/T41A/M43R/M47T/E81V/L85R/K89N/A91T/F92P/K93V/R94L/N144S/N149S (protein)
chain: B13 chain with T118I, N144S
B15: R29D/Y31L/Q33H/K36G/M38I/T41A/M42T/M43R/M47T/E81V/L85R/K89N/A91T/F92P/K93V/R94L/L148S/N149S (protein)
chain: B13 chain with M42T, T118I, L148S
B16: E24G/R29D/Y31L/Q33H/K36G/M38I/T41A/M43R/M47T/F59L/E81V/L85R/K89N/A91T/F92P/K93V/R94L/H96R/N149S/C182S (protein)
chain: B13 chain with E24G, F59L, H96R, T118I, C182S
B17: R29D/Y31L/Q33H/K36G/M38I/T41A/M43R/M47T/E81V/L85R/K89N/A91T/F92P/K93V/R94L/N149S (protein)
chain: B13 chain with T118I
B18: R29V/M43Q/E81R/L85I/K89R/D90L/A91E/F92N/K93Q/R94G (protein)
chain: VIHVTKEVKEVATLSCGHNVSVEELAQTVIYWQKEKKMVLTMQSGDMNIWPEYKNRTIFDITNNLSIVILALRPSDEGTYRCVVIKYERLENQGEHLAEVTLSVKADFPTPSISDFEIPTSNIRRIICSTSGGFPEPHLSWLENGEELNAINTTVSQDPETELYAVSSKLDFNMTTNHSFMCLIKYGHLRVNQTFNWNTTKQEHFPDN
B19: T41I/A91G (protein)
chain: B1 chain with T41I, A68V, A91G, A110T
modifications: CD80 v44 ECD
B20: E88D/K89R/D90K/A91G/F92Y/K93R/N122S/N177S (protein)
chain: B1 chain with A68V, E88D, K89R, D90K, A91G, F92Y, K93R, A110T, N122S, N177S
B21: E88D/K89R/D90K/A91G/F92Y/K93R (protein)
chain: VIHVTKEVKEVATLSCGHNVSVEELAQTRIYWQKEKKMVLTMMSGDMNIWPEYKNRTIFDITNNLSIVILALRPSDEGTYECVVLKYDRKGYRREHLAEVTLSVKAD
modifications: CD80 v48 IgV
B22: K36G/K37Q/M38I/L40M/F59L/E81V/L85R/K89N/A91T/F92P/K93V/R94L/E99G/T130A/N149S (protein)
chain: VIHVTKEVKEVATLSCGHNVSVEELAQTRIYWQKEGQIVMTMMSGDMNIWPEYKNRTILDITNNLSIVILALRPSDEGTYVCVVRKYENDTPVLEHLAGVTLSVKADFPTPSISDFEIPTSNIRRIICSASGGFPEPHLSWLENGEELSAINTTVSQDPETELYAVSSKLDFNMTTNHSFMCLIKYGHLRVNQTFNWNTTKQEHFPDN

Columns and labels:
allogeneic CD4+ T cells = assay: Mixed Lymphocyte Reaction (MLR), IFN-gamma; format: cell-based, human; conditions: culture supernatant
Protocol: Soluble rCD80.Fc bioactivity was tested in a human Mixed Lymphocyte Reaction (MLR). Human primary dendritic cells (DC) were generated by culturing monocytes isolated from PBMC (BenTech Bio, USA) in vitro for 7 days with 500U/ml rIL-4 (R&D Systems, USA) and 250 U/ml rGM-CSF (R&D Systems, USA) in Ex-Vivo 15 media (Lonza, Switzerland). 10,000 matured DC and 100,000 purified allogeneic CD4+ T cells (BenTech Bio, USA) were co-cultured with variant CD80 Fc fusion proteins and controls in 96 well round bottom plates in 200 μl final volume of Ex-Vivo 15 media. On day 5, IFN-gamma secretion in culture supernatants was analyzed using the Human IFN-gamma Duoset ELISA kit (R&D Systems, USA). Optical density was measured by VMax ELISA Microplate Reader (Molecular Devices, USA) and quantitated against titrated rIFN-gamma standard included in the IFN-gamma Duo-set kit (R&D Systems, USA).

human pan T cells = assay: Anti-CD3 coimmobilization assay, IFN-gamma; format: cell-based; conditions: culture supernatant; for Coimmobilization with anti CD3 IFN-gamma: Table E32, variant ECD-Fc coimmobilized with anti-CD3; for Coimmobilization with anti-CD3 IFN-gamma: Table E33, 3 days
Procedure, shortened: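 IFN-gamma in 3-day culture supernatants, quantified by ELISA, reflects costimulation. Human pan T cells or BC3 clone (100,000/well, Ex-Vivo 15) were placed on wells pre-adsorbed overnight with rCD80.Fc variants (1–80 nM) together with anti-CD3 OKT3 (1 nM or 4 nM), unbound protein removed.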

[1] = Table E32, variant ECD-Fc in MLR assay

| Molecule | MLR IFN-gamma levels (allogeneic CD4+ T cells; [1]) | Coimmobilization with anti CD3 IFN-gamma (human pan T cells) | MLR IFN-gamma levels (allogeneic CD4+ T cells; Table E33) | Coimmobilization with anti-CD3 IFN-gamma (human pan T cells) |
| --- | --- | --- | --- | --- |
| B1 | 861 pg/mL | 163 pg/mL | – | – |
| B2 | 758 pg/mL | 129 pg/mL | – | – |
| B3 | 800 pg/mL | 124 pg/mL | – | – |
| B4 | 698 pg/mL | 75 pg/mL | – | – |
| B5 | 794 pg/mL | 1751 pg/mL | – | – |
| B6 | 656 pg/mL | 77 pg/mL | – | – |
| B7 | 671 pg/mL | 82 pg/mL | – | – |
| B8 | 976 pg/mL | 105 pg/mL | – | – |
| B9 | 711 pg/mL | 104 pg/mL | – | – |
| B10 | 1003 pg/mL | 62 pg/mL | – | – |
| B11 | 969 pg/mL | 101 pg/mL | – | – |
| B12 | 665 pg/mL | 59 pg/mL | – | – |
| B13 | – | – | 5028 pg/mL | 387 pg/mL |
| B14 | – | – | 7943 pg/mL | 400 pg/mL |
| B15 | – | – | 17387 pg/mL | 464 pg/mL |
| B16 | – | – | 13146 pg/mL | 406 pg/mL |
| B17 | – | – | 24029 pg/mL | 405 pg/mL |
| B18 | – | – | 11695 pg/mL | 342 pg/mL |
| B19 | – | – | 26052 pg/mL | 433 pg/mL |
| B20 | – | – | 6345 pg/mL | 773 pg/mL |
| B21 | – | – | 9356 pg/mL and 5922 pg/mL | 1125 pg/mL and 944 pg/mL |
| B22 | – | – | 3095 pg/mL | 507 pg/mL |
